This note sets out measurements from publication PMC8628696, “Stable DNA Aptamer–Metal–Organic Framework as Horseradish Peroxidase Mimic for Ultra-Sensitive Detection of Carcinoembryonic Antigen in Serum”.

The target in the series is carcinoembryonic antigen (CEA) (human, UniProt P06731 35-685). Description: colorimetric antibody-aptamer sandwich assay; MOF-grafted tetrahedron 25 ug/mL; CEA 20 ng/mL; antibody-captured CEA; Colorimetric sandwich assay: TMB 2 mM, H2O2 0.2 M, detection time 20 min; binding buffer, pH and temperature not given in the material (storage in PBS at 37 C). The note with it: protein: commercial; label: grafted on PCN-222(Fe) MOF via 5' phosphates (peroxidase mimic); DNA tetrahedron of 4 strands with single-stranded 5' aptamer extension on strand D.
Sequence of carcinoembryonic antigen (CEA) (P06731 35-685): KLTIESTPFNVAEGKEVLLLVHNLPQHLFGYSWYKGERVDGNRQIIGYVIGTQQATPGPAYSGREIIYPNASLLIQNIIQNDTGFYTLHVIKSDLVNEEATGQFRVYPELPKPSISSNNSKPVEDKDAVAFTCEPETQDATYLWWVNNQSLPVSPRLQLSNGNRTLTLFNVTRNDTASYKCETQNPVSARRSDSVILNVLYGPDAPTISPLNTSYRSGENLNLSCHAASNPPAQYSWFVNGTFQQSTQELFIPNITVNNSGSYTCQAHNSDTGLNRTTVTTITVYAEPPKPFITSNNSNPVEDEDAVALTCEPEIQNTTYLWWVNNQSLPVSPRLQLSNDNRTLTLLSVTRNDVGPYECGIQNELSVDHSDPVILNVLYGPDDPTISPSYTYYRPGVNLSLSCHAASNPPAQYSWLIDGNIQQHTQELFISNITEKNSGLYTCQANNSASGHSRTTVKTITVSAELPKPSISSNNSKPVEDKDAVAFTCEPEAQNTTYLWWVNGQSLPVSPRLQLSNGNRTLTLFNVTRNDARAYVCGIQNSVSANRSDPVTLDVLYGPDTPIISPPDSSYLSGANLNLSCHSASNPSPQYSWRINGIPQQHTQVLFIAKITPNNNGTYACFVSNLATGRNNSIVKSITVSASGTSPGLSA

B1: CEAapt-TDN (strands D+A+B+C) on PCN-222(Fe) MOF (structured_DNA)
DNA 1: ATACCAGCTTATTCAATTTTTTTTACATTCCTAAGTCTGAAACATTACAGCTTGCTACACGAGAAGAGCCGCCATAGTA
DNA 2: TATCACCAGGCAGTTGACAGTGTAGCAAGCTGTAATAGATGCGAGGGTCCAATAC
DNA 3: TCAACTGCCTGGTGATAAAACGACACTACGTGGGAATCTACTATGGCGGCTCTTC
DNA 4: TTCAGACTTAGGAATGTGCTTCCCACGTAGTGTCGTTTGTATTGGACCCTCGCAT
modifications: 5' phosphate on strands A, B and C
Consider B1, for which the binding result is listed as “binds”.
